Source: patent publication US20120093811A1 (published 2012)
One block for each binder: values may come before it.

B1: Source 2 VEGF-D, purified recombinant human VEGF-D monomer (R&D Systems, Catalog Number 622-VD/CF) (ligand)
chain: FYDIETLKVIDEEWQRTQCSPRETCVEVASELGKSTNTFFKPPCVNVFRCGGCCNEESLICMNTSTSYISKQLFEISVPLTSVPELVPVKVANHTGCKCLPTAPRHPYS
B2: Source 1 VEGF-D, mature dimeric recombinant human VEGF-D (CSIRO) (ligand)
chain: FAATFYDIETLKVIDEEWQRTQCSPRETCVEVASELGKSTNTFFKPPCVNVFRCGGCCNEESLICMNTSTSYISKQLFEISVPLTSVPELVPVKVANHTGCKCLPTAPRHPYSIIRR

Key:
[1] = target: VEGFR-2-EpoR chimeric receptor on VEGFR-2-Ba/F3 cells (mouse, UniProt P35918 20-762); test: cell-based or functional assay
[2] = target: B1; test: cell-based or functional assay
[3] = target: B2; test: cell-based or functional assay
[4] = target: B1; test: SPR, IgG captured by anti-human IgG (Fc), Source 2 VEGF-D monomer as analyte
[5] = target: B1; test: SPR, KD against that of Ig-1A
[6] = target: B2; test: SPR Protocol B: VEGF-D dimer amine-coupled, IgG as analyte
Procedure: (§1) Protocol B: In the second assay format, Protocol B, the orientation of the IgGs and the VEGF-D antigen was reversed relative to Protocol A. The Source 1 VEGF-D dimer was immobilized directly on the chip surface by amine coupling and the murine anti-VEGF-D monoclonal antibody, Ig-1A or IgG variants flowed over this surface as analytes at concentrations of 4 nM, 1.33 nM, and 0.44 nM. This protocol allowed avidity effects to be controlled by reducing the density of dimeric VEGF-D immobilized on the chip and in effect reduce the bivalent binding properties of the system being analyzed.
(§2) All four flow cells on a CM5 chip were activated for 7 min at 25° C. using a mixture of NHS.EDC. Flow cell one was used as an unmodified (activated and blocked) reference against flow cells 2-4. Source 1 VEGF-D dimer was diluted to 1-3 μg/ml into 10 mM sodium acetate, pH 4, and injected over three surfaces for different lengths of time to achieve low ligand densities of 10, 15 and 20 RU to minimize avidity effects of the IgG. All surfaces were blocked for 7 min with ethanolamine (1M, pH 8.2) and pre-conditioned using five 10 s injections of 100 mM H₃PO₄; 1M NaCl. Immobilization steps were carried out at a flow rate of 30 μl/min using HBS-N running buffer.
(§3) All IgG binding experiments were performed at 25° C. using HBS-EP+ running buffer. Analytes (murine reference anti-VEGF-D monoclonal antibody and humanized variants) were injected for 200 s at a flow rate of 70 μl/min and dissociation monitored for 250 s. The antigen surfaces were regenerated with a 10 s pulse of 100 mM H₃PO₄; 1M NaCl. Analyte concentrations used for murine and humanized variants were 4 nM, 1.33 nM, and 0.44 nM. Data was processed using the reference surface and double referencing from blank injections. Binding constants for the IgG/antigen interactions were determined from the three antigen surfaces globally fitted to a 1:1 interaction model. Refractive index parameter was constant (RI=0).

[7] = target: B2; test: SPR Protocol A, KD against that of Ig-1A
Procedure: (§4) Protocol A: The first assay format, Protocol A, used an assay system where IgGs were captured on a biosensor chip surface using an anti-human IgG (Fc) antibody and the Source 1 VEGF-D dimer run over the chip as the analyte in solution. This ensured that all IgG molecules were presented to the antigen in an active orientation.
(§5) The SPR protocol was slightly modified to compensate for the dimeric nature of the VEGF-D. Ig-1A or IgG variants were analyzed using an anti-human capture kit as described for Anti-human IgG (Fc) capture above, except that 1000 RU of the IgG or IgG variant was captured on the anti-human chip surface. […] The kinetics generated using this approach are accurate within the experimental parameters set. This standard assay protocol is best suited to studying 1:1 interactions and thus, may not be ideal for analyzing binding between the IgG variants and the VEGF-D dimer. In light of this, Protocol B was also used.

[8] = target: B2; test: SPR Protocol A: IgG captured by anti-human Fc, VEGF-D dimer as analyte
Procedure: as §4, §5

[9] = target: B2; test: SPR Protocol B, KD against that of Ig-1A
Procedure: as §1, §2, §3

[10] = target: T1, VEGF-D (recombinant human; source not given) (human, UniProt O43915 89-205, limits assumed); test: SPR (BIAcore), VEGF-D amine-coupled on CM5, purified scFv as analyte
T1 construct: also used here as target of IC50 values averaged over Source 1 and Source 2; also called vascular endothelial growth factor-D
T1 sequence: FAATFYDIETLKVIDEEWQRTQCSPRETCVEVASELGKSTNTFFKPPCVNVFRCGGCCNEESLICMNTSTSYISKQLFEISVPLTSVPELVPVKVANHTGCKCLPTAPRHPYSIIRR
Procedure: scFv variants were fully characterized using a BIAcore™ biosensor. All isolated scFv samples were purified as monomer peaks by anti-FLAG affinity chromatography followed by gel filtration chromatography. BIAcore™ analysis was performed by directly immobilizing VEGF-D on a CM5 surface using amine coupling, with the scFv run as the analyte. Analysis of binding was carried out using the BIAevaluation kinetic analysis software. All repeats were separate protein expressions and were performed at 25° C.
Clones F61, A63, AR7, AW61, CJ37, DI126 and DA18 were produced in large-scale expression cultures and purified by anti-FLAG affinity chromatography and gel filtration. The binding kinetics against VEGF-D were then measured using a BIAcore™ biosensor as described previously.

[11] = target: T1, VEGF-D (recombinant human; source not …); test: SPR (BIAcore), purified 1A scFv on VEGF-D, repeat 3
Procedure: (§6) Kinetic values were obtained for the three humanized scFv variants, 1A, 3A and 4A (Table 2). All isolated scFv samples were purified as monomer peaks by anti-FLAG affinity and gel filtration chromatography. BIAcore™ analysis was performed by directly immobilizing VEGF-D on a CM5 surface using amine coupling, with the scFv run as the analyte. Analysis of binding was carried out using the BIAevaluation kinetic analysis software. All repeats were separate protein expressions and were performed at 25° C.
(§7) The binding of purified 1A scFv to VEGF-D was analyzed using a BIAcore™ biosensor (Table 3).

[12] = target: T1, VEGF-D (recombinant human; source not …); test: SPR (BIAcore), purified 1A scFv on VEGF-D, repeat 1
Procedure: as §6, §7

[13] = target: T1, VEGF-D (recombinant human; source not …); test: SPR (BIAcore), purified 1A scFv on VEGF-D, repeat 2
Procedure: as §6, §7

[14] = target: T1, VEGF-D (recombinant human; source not …); test: SPR (BIAcore), VEGF-D amine-coupled on CM5, purified scFv as analyte, 25 C
Procedure: as §6

[15] = target: T1, VEGF-D (recombinant human; source not …); test: SPR (BIAcore), purified 1A scFv on VEGF-D, average of three repeats
Procedure: as §6, §7

VEGFR-2-EpoR chimeric receptor on VEGFR-2-Ba/F3 cells, sequence (P35918 20-762, change not shown): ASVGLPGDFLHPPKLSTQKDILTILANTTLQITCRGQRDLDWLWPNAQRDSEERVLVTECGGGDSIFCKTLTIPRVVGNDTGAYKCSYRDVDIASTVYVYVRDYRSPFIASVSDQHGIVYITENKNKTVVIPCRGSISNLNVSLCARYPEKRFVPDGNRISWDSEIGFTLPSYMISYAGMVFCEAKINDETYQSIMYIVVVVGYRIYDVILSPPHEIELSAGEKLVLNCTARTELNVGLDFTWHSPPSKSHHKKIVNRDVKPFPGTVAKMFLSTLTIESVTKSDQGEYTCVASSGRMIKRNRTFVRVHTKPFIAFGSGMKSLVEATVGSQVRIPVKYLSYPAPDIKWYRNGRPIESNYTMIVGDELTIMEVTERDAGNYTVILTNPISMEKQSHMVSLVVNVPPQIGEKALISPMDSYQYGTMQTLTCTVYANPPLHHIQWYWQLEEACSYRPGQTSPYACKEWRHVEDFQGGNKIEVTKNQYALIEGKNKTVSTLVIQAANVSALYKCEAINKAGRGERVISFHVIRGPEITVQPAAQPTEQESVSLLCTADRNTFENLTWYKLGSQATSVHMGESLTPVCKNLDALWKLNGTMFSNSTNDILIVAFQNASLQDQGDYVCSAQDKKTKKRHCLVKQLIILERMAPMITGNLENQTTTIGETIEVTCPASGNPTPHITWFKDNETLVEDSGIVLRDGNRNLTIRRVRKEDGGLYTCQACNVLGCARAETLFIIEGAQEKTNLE

Binder: B1
concentration within EC50-EC80 for proliferation of VEGFR-2-Ba/F3 cells [1]: 0.1 µg/mL

Binder: B2
concentration within EC50-EC80 for proliferation of VEGFR-2-Ba/F3 cells [1]: 0.005 µg/mL

B3: humanized IgG antibody derived from clone F61 (antibody, V domains shown)
VH: QVQLVQSGAEVKQPGASVKVSCKASGYTFTGYNMYWVRQAPGQGLEWMGYIDPYNGDTTYNQKFKGRVTMTTDTSTSTAYMKLRSLRSDDTAVYYCARTSYYGGMDYWGRGTLVTVAS
VL: DIVMTQTPLSSPVTLGQPASISCRSSQSLVHSNGNTYLHWLQQRPGQPPRLLIYKVSNRFSGVPDRFSGSGAGTDFTLKISRVEAEDVGVYYCSQSTHVPRTFGQGTKLEIKR
notes: IgG
rank in the VEGFR-3-Ba/F3 bioassay [2]: 8 rank
rank in the VEGFR-3-Ba/F3 bioassay [3]: 5 rank
Kd [4]: 5 nM
koff [4]: 0.00824 s⁻¹
Fold-improvement with respect to Ig-1A [5]: 1.8 fold

B5: humanized IgG antibody derived from clone AW61 (antibody, V domains shown)
VH: QVQLVQSGAEVKQPGASVKVSCKASGYTFTGYNMYWVRQAPGQGLEWMGYIDPYNGDTTYNQKFKGRATMTTDTSTSTAYMKLRSLRSDDTAVYYCARTSYYGGMDYWGRGTLVTVAS
VL: DIVMTQTPLSSPVTLGQPASISCRSSQSLVHSNGNTYLHWLQQRPGQPPRLLIYKVSNRFSGVPDRFSGSGAGTDFTLKISRVEAEDVGVYYCSQSTHVPRTFGQGTKLEIKR
notes: IgG
rank in the VEGFR-3-Ba/F3 bioassay [2]: 4 rank
rank in the VEGFR-3-Ba/F3 bioassay [3]: 6 rank
Kd [4]: 4.1 nM
koff [4]: 0.00725 s⁻¹
Fold-improvement with respect to Ig-1A [5]: 2.2 fold

B6: humanized IgG antibody derived from clone A63 (antibody, V domains shown)
VH: QVQLVQSGAKVKQPGASVKASCKASGYTFTGYNMYWVRQAPGQGLEWMGYIDPYNGDTTYNQKFKGRVTMTTDTSTSTAYMELRSLRSDDTAVYYCARTSYYGGMDYWGRGTLVTVAS
VL: DIVMTQTPLSSPVTLGQPASISCRSSQSLVHSNGNTYLHWLQQRPGQPPRLLIYKVSNRFSGVPDRFSGSGAGTDFTLKISRVEAEDVGVYYCSQSTHVPRTFGQGTKLEIKR
notes: IgG
Kd [4]: 7 nM
koff [4]: 0.00677 s⁻¹
kon [4]: 970000 M⁻¹ s⁻¹
Fold-improvement with respect to Ig-1A [5]: 1.3 fold

Now from value to binder:

rank in the VEGFR-3-Ba/F3 bioassay [2]: 2 rank
rank in the VEGFR-3-Ba/F3 bioassay [3]: 2 rank
Kd [4]: 4.1 nM
koff [4]: 0.0041 s⁻¹
kon [4]: 1e+06 M⁻¹ s⁻¹
Kd [6]: 0.88 nM
koff [6]: 0.0012 s⁻¹
kon [6]: 1.3e+06 M⁻¹ s⁻¹
Fold-improvement with respect to Ig-1A [7]: 1 fold
Fold-improvement with respect to Ig-1A [5]: 2.2 fold
Kd [8]: 0.699 nM
koff [8]: 0.00039 s⁻¹
kon [8]: 560000 M⁻¹ s⁻¹
Fold-improvement with respect to Ig-1A [9]: 2 fold
B4: humanized IgG antibody derived from clone DI26 (antibody, V domains shown)
VH: QVQLVQSGAKVKQPGASVKASCKASGYTFTGYNMYWVRQAPGQGLEWMGYIDPYSGDTTYNQKFKGRVTMTTDTSTSTAYMELRSLRSDDTAVYYCARTSYYGGMDYWGRGTLVTVAS
VL: DIVMTQTPLSSPVTLGQPASISCRSSQSLVHSNGNTYLHWLQQRPGQPPRLLIYKVSNRFSGVPDRFSGSGAGTDFTLKISRVEAEDVGVYYCSQSTHVPRTFGQGTKLEIKR
notes: IgG

Kd [10]: 13.1 nM
koff [10]: 0.0108 s⁻¹
kon [10]: 845000 M⁻¹ s⁻¹
Kd [11]: 14.8 nM
koff [11]: 0.0104 s⁻¹
kon [11]: 707000 M⁻¹ s⁻¹
Kd [12]: 14.2 nM
koff [12]: 0.0109 s⁻¹
kon [12]: 769000 M⁻¹ s⁻¹
Kd [13]: 10.4 nM
koff [13]: 0.011 s⁻¹
kon [13]: 1.06e+06 M⁻¹ s⁻¹
Kd [14]: 13.1 nM
koff [14]: 0.0109 s⁻¹
kon [14]: 769000 M⁻¹ s⁻¹
Kd [15]: 13.1 nM
koff [15]: 0.0108 s⁻¹
kon [15]: 845000 M⁻¹ s⁻¹
B7: humanized scFv 1A (scFv)
scFv: QVQLVQSGAEVKQPGASVKVSCKASGYTFTGYNMYWVRQAPGQGLEWMGYIDPYNGDTTYNQKFKGRVTMTTDTSTSTAYMELRSLRSDDTAVYYCARTSYYGGMDYWGRGTLVTVASGGGASGGGGSGGGGSDIVMTQTPLSSPVTLGQPASISCRSSQSLVHSNGNTYLHWLQQRPGQPPRLLIYKVSNRFSGVPDRFSGSGAGTDFTLKISRVEAEDVGVYYCSQSTHVPRTFGQGTKLEIKR
notes: also called 1A scFv; clone 1A
